Data published in the supplement of paper PMC12764529.
± gives the half width of the 95% confidence interval.

Key:
[1] = folding stability dG unfold from trypsin proteolysis; higher = more stable
How it was run: (§1)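 Designed mini-proteins (under 80 residues, no cysteine) in a PA-tagged cDNA display construct were digested with trypsin and chymotrypsin. Each protease was used at 11 concentrations (threefold dilutions) plus a no-protease condition, followed by sequencing. K50 was inferred by Bayesian fitting of sequencing counts, and unfolding free energy was derived against a sequence-predicted unfolded-state K50 and a shared folded-state K50, per protease or combined. Only designs with AlphaFold2 dimer inter-PAE above 15 were kept.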

[2] = folding stability dG unfold from chymotrypsin proteolysis; higher = more stable
How it was run: as §1

[3] = folding stability dG unfold (combined trypsin and chymotrypsin); higher = more stable
How it was run: as §1

What does the source list for “SAGGSAGGSAGHRSVMVTVDDIAKENGIKIPPGSYLMVTVEGNKVKDIMIQPMKPKPEDPSAGGSAGGSAGG [r11_616_TrROS]”?
folding stability dG unfold [1]: -0.499 ± 0.44 kcal/mol; folding stability dG unfold [2]: -0.0198 ± 0.24 kcal/mol; folding stability dG unfold [3]: -0.17 ± 0.18 kcal/mol

For “SAGGSAGGSAGIEIELNGKPVTIHPNPDGYYRVRFPGPGKSILIPGMPPDDIKDFAKELLSAGGSAGGSAGG [r11_1085_TrROS]”, which “folding stability dG unfold” value [1] is on record?
The value was -0.161 ± 0.15 kcal/mol.

What about the “folding stability dG unfold” value [2] of the same sequence?
Its value is 0.137 ± 0.15 kcal/mol.

And the “folding stability dG unfold” value [3]?
The value was 0.0206 ± 0.1 kcal/mol.

What does the source list for “SAGGSAGGSAGIEIHVMEDPDGRWWLMITIKVKYKVRNPEDGDPIFEFEVTYTIMIWLKASAGGSAGGSAGG [r17_124_TrROS]”?
folding stability dG unfold [1]: 4.3 ± 0.24 kcal/mol; folding stability dG unfold [2]: 5.9 ± 0.17 kcal/mol; folding stability dG unfold [3]: > 6 kcal/mol

For “SAGGSAGGSAGIKIPPGQKLSIEENPDGNMEIKFPDPGQKFTIPPNAPIEVDPNNWIYIKSAGGSAGGSAGG [r17_49_TrROS]”, which “folding stability dG unfold” value [1] is on record?
Its value is 0.00801 ± 0.33 kcal/mol.

What about the “folding stability dG unfold” value [2] of the same sequence?
Its value is 0.0738 ± 0.4 kcal/mol.

What about the “folding stability dG unfold” value [3] of the same sequence?
The value was 0.181 ± 0.33 kcal/mol.

Which results are given for “SAGGSAGGSAGIPLGPDGGLIVTEGPDGPVEERLFASPEEARRWIEEHLPEGWRVVFRPLSAGGSAGGSAGG [r11_983_TrMRF]”?
folding stability dG unfold [1]: 1.15 ± 0.017 kcal/mol; folding stability dG unfold [2]: 1.6 ± 0.13 kcal/mol; folding stability dG unfold [3]: 1.47 ± 0.058 kcal/mol

With “SAGGSAGGSAGIRLDSLEEALKYIRKNFPPGRTVEIRVYDGDKPVEITVQVDENGDIKIVSAGGSAGGSAGG [r17_69_TrROS]” as the sequence, how does the “folding stability dG unfold” value [1] read?
Its value is 2.91 ± 0.15 kcal/mol.

And the “folding stability dG unfold” value [2]?
The value was 3.227 ± 0.02 kcal/mol.

And the “folding stability dG unfold” value [3]?
Its value is 3.19 ± 0.092 kcal/mol.

What does the source list for “SAGGSAGGSAGKAKIVKIEKVKNKNGETYYIIKLEGKKEIFVIKDKNGKKKKIPLKELKPSAGGSAGGSAGG [r17_286_TrROS_Hall]”?
folding stability dG unfold [1]: 1.42 ± 0.043 kcal/mol; folding stability dG unfold [2]: 2.37 ± 0.026 kcal/mol; folding stability dG unfold [3]: 2.11 ± 0.048 kcal/mol

For “SAGGSAGGSAGKEYIVRITLPNGKVYEFPGKLEDVVKALPPEYKDAVIEVFDPRTGKRVSSAGGSAGGSAGG [r11_353_TrMRF]”, which “folding stability dG unfold” value [1] is on record?
Its value is 2.53 ± 0.049 kcal/mol.

And the “folding stability dG unfold” value [2]?
Its value is 4.26 ± 0.057 kcal/mol.

What about the “folding stability dG unfold” value [3] of the same sequence?
The value was 3.84 ± 0.089 kcal/mol.

For “SAGGSAGGSAGKEYYVVAKVEDPSTGKVTVYVGPFSDFVKTFDPKNSKVEFFLVEKDALKSAGGSAGGSAGG [r11_334_TrMRF]”, which “folding stability dG unfold” value [1] is on record?
Its value is 1.87 ± 0.073 kcal/mol.

What about the “folding stability dG unfold” value [2] of the same sequence?
The value was 3.31 ± 0.044 kcal/mol.

What about the “folding stability dG unfold” value [3] of the same sequence?
The value was 2.89 ± 0.077 kcal/mol.

For “SAGGSAGGSAGKIDPKDIEKVEFEIDEESGKGKAFVILKNGEPAEIEFSSIEEAIKALLGSAGGSAGGSAGG [r11_339_TrMRF]”, which “folding stability dG unfold” value [1] is on record?
Its value is 1.93 ± 0.099 kcal/mol.

What about the “folding stability dG unfold” value [2] of the same sequence?
The value was 0.981 ± 0.14 kcal/mol.

And the “folding stability dG unfold” value [3]?
Its value is 1.37 ± 0.16 kcal/mol.

What does the source list for “SAGGSAGGSAGKIEIIKDKKNGKYTVKIRNKDGEEIEIEVDSLEELEELAKKLNIEVEVESAGGSAGGSAGG [r11_1049_TrROS_Hall]”?
folding stability dG unfold [1]: 2.33 ± 0.16 kcal/mol; folding stability dG unfold [2]: 3.4 ± 0.21 kcal/mol; folding stability dG unfold [3]: 3.18 ± 0.15 kcal/mol

For “SAGGSAGGSAGKIEIKVVKKTPNYVYYEIRFEETKKTIIVKAKSKEDAEEAAKKLLKELKSAGGSAGGSAGG [r11_848_TrROS_Hall]”, which “folding stability dG unfold” value [1] is on record?
Its value is 2.31 ± 0.099 kcal/mol.

What about the “folding stability dG unfold” value [2] of the same sequence?
Its value is 2.88 ± 0.062 kcal/mol.

What about the “folding stability dG unfold” value [3] of the same sequence?
The value was 2.62 ± 0.17 kcal/mol.

With “SAGGSAGGSAGKIEIYPNDNQYYIKITVPRRNPNNGKWERQERTIPMPPDQAKELLKNGISAGGSAGGSAGG [r11_389_TrROS]” as the sequence, how does the “folding stability dG unfold” value [1] read?
Its value is 0.0667 ± 0.14 kcal/mol.

And the “folding stability dG unfold” value [2]?
The value was -0.439 ± 0.45 kcal/mol.

What about the “folding stability dG unfold” value [3] of the same sequence?
The value was -0.17 ± 0.3 kcal/mol.

For “SAGGSAGGSAGKIKIKNEDGSEYEVKKIEITIKNENGEKKKIKLEIELPKAKEVKIEKKKSAGGSAGGSAGG [r11_804_TrROS_Hall]”, which “folding stability dG unfold” value [1] is on record?
The value was -1.2 ± 0.83 kcal/mol.

What about the “folding stability dG unfold” value [2] of the same sequence?
The value was 0.32 ± 0.087 kcal/mol.

What about the “folding stability dG unfold” value [3] of the same sequence?
Its value is -0.13 ± 0.29 kcal/mol.

Which “folding stability dG unfold” value [1] does the source give for “SAGGSAGGSAGKKIKYRITIYNKKTGKTIEIEIEMSEDEIKKIAEELAKKYNVKIKIEPVSAGGSAGGSAGG [r11_515_TrROS_Hall]” here?
The value was 3.71 ± 0.13 kcal/mol.

And the “folding stability dG unfold” value [2]?
The value was 4.79 ± 0.13 kcal/mol.

What about the “folding stability dG unfold” value [3] of the same sequence?
The value was 4.56 ± 0.18 kcal/mol.

With “SAGGSAGGSAGKKIPFGKNVKILEIEEIDPDIIIIKFENSVFIVRILPNGEVKVIKFDIDSAGGSAGGSAGG [r11_612_TrMRF]” as the sequence, how does the “folding stability dG unfold” value [1] read?
Its value is 1.83 ± 0.042 kcal/mol.

What about the “folding stability dG unfold” value [2] of the same sequence?
The value was 2.4 ± 0.027 kcal/mol.

And the “folding stability dG unfold” value [3]?
Its value is 2.33 ± 0.09 kcal/mol.

With “SAGGSAGGSAGKKIPKKIIPKINLKVELVKSKIYYDKKKKKIVKIEYEFKITYPNGFKATSAGGSAGGSAGG [r11_890_TrMRF]” as the sequence, how does the “folding stability dG unfold” value [1] read?
The value was 1.44 ± 0.053 kcal/mol.

And the “folding stability dG unfold” value [2]?
The value was 1.97 ± 0.11 kcal/mol.

And the “folding stability dG unfold” value [3]?
Its value is 1.83 ± 0.2 kcal/mol.

With “SAGGSAGGSAGKKKIKLLIFDKKTNKLYVVEVELTKDGKIKITKIKEIYEVKPGEKLKLLSAGGSAGGSAGG [r11_750_TrROS_Hall]” as the sequence, how does the “folding stability dG unfold” value [1] read?
Its value is 0.981 ± 0.044 kcal/mol.

What about the “folding stability dG unfold” value [2] of the same sequence?
The value was 1.3 ± 0.26 kcal/mol.

And the “folding stability dG unfold” value [3]?
The value was 1.19 ± 0.25 kcal/mol.

For “SAGGSAGGSAGKKKKKKKKKPPVTLTVEIEIEINGKKYIAKKKVKLNKDGKLEVEVEIYPSAGGSAGGSAGG [r11_555_TrROS_Hall]”, which “folding stability dG unfold” value [1] is on record?
Its value is 2.4 ± 0.37 kcal/mol.

What about the “folding stability dG unfold” value [2] of the same sequence?
Its value is 3.23 ± 0.065 kcal/mol.

And the “folding stability dG unfold” value [3]?
The value was 3.13 ± 0.41 kcal/mol.

Which results are given for “SAGGSAGGSAGKKKKKPKKKYVFIVIKINLSEEELKKLAEELGIDKVFKNENGYAVLVVKSAGGSAGGSAGG [r11_64_TrROS_Hall]”?
folding stability dG unfold [1]: 2.19 ± 0.12 kcal/mol; folding stability dG unfold [2]: 3.56 ± 0.059 kcal/mol; folding stability dG unfold [3]: 3.15 ± 0.13 kcal/mol

What does the source list for “SAGGSAGGSAGKKKTITIKIPGMSKEEIAKLIKEKFGPNVKITEIKENKDNLLEITVEVESAGGSAGGSAGG [r11_580_TrROS_Hall]”?
folding stability dG unfold [1]: 2.79 ± 0.22 kcal/mol; folding stability dG unfold [2]: 2.79 ± 0.19 kcal/mol; folding stability dG unfold [3]: 2.99 ± 0.24 kcal/mol

Which “folding stability dG unfold” value [1] does the source give for “SAGGSAGGSAGKKKVKLVEFDEETGYALLEVEDEETGETKLVLVPMTAEELEALPNIEVLSAGGSAGGSAGG [r17_46_TrROS_Hall]” here?
Its value is 2.14 ± 0.24 kcal/mol.

And the “folding stability dG unfold” value [2]?
The value was 1.91 ± 0.079 kcal/mol.

And the “folding stability dG unfold” value [3]?
The value was 2.08 ± 0.24 kcal/mol.

For “SAGGSAGGSAGKKKVLMTVDEIEKKLGKKIKPGSLVLVEVENGKVKKIEIFDVKKKPKKKSAGGSAGGSAGG [r11_616_TrROS_Hall]”, which “folding stability dG unfold” value [1] is on record?
Its value is 0.943 ± 0.09 kcal/mol.

And the “folding stability dG unfold” value [2]?
Its value is 1.07 ± 0.076 kcal/mol.

What about the “folding stability dG unfold” value [3] of the same sequence?
The value was 1 ± 0.21 kcal/mol.

For “SAGGSAGGSAGKKKYKIVSIEIERNKDGNSLTVKIKLENGKELTLTFPTEEDLKNLKIKASAGGSAGGSAGG [r11_711_TrROS_Hall]”, which “folding stability dG unfold” value [1] is on record?
The value was 1.59 ± 0.1 kcal/mol.

What about the “folding stability dG unfold” value [2] of the same sequence?
Its value is 3.104 ± 0.028 kcal/mol.

What about the “folding stability dG unfold” value [3] of the same sequence?
The value was 2.78 ± 0.075 kcal/mol.

For “SAGGSAGGSAGKKPIKEVTITLPPGAKIVKIEIEKTEDGKYILKITVEVDGKLYEFTFELSAGGSAGGSAGG [r11_1013_TrROS_Hall]”, which “folding stability dG unfold” value [1] is on record?
The value was 3.13 ± 0.25 kcal/mol.

What about the “folding stability dG unfold” value [2] of the same sequence?
The value was 4.27 ± 0.14 kcal/mol.

And the “folding stability dG unfold” value [3]?
The value was 3.98 ± 0.29 kcal/mol.

With “SAGGSAGGSAGKKTYKLVIPVKPDKTVEEIAEEVKKLLGPGSKVEVEEKEDGFATVYVESSAGGSAGGSAGG [r17_20_TrMRF]” as the sequence, how does the “folding stability dG unfold” value [1] read?
Its value is 0.292 ± 0.04 kcal/mol.

And the “folding stability dG unfold” value [2]?
The value was 0.656 ± 0.093 kcal/mol.

And the “folding stability dG unfold” value [3]?
Its value is 0.555 ± 0.097 kcal/mol.
